Assay [1] concerns the target HIV-1 Tat protein (wild type, biologically active) (HIV-1 (human T lymphotropic virus type IIIB-BH-10, subtype B)) (UniProt P04610). Description: SPR; BIACORE 3000; Tat immobilised by amine coupling on a CM3 chip; Env (5–1,000 nM) flowed in PBS pH 7.4 with 0.2% Tween 20, 300 mM NaCl, 5 mg/mL dextran; blank reference surface subtracted; single-site model.
For assay [2] the target is unchanged. Description: ITC; VP-ITC; Tat (1.25 to 4.4 µM) in the cell, trimeric Env (12.5 to 47.0 µM in protein subunit) in the syringe; PBS pH 7.4. (ITC needs no label: the signal is the heat of the interaction.)

For “trimeric wt Env (clade B, HIV-1 SF162) (natural protein)”, in assay [1], the Kd (commonly the concentration at which binding is half-saturated) turned out to be 38 nM; the T1/2 (complex dissociation half life) is 23 min; the koff (commonly the first-order rate constant of dissociation) was 0.00049 s⁻¹; the kon – broadly, the second-order rate constant of association – was 14000 M⁻¹ s⁻¹. In assay [2], this substance yielded a Kd of 111 nM and a stoichiometry N (Tat per gp120 subunit) of 1.

In assay [1], “trimeric ΔV2 Env (clade B, HIV-1 SF162) (natural protein)” displayed a Kd of 22 nM, a T1/2 (complex dissociation half life) of 230 min, an off-rate constant (koff) of 5e-05 s⁻¹ and a kon of 2600 M⁻¹ s⁻¹.

In assay [1], “monomeric ΔV2 Env (clade B, HIV-1 SF162) (natural protein)” displayed a Kd of 91 nM, a T1/2 (complex dissociation half life) of 23 min, a koff of 0.00049 s⁻¹ and a kon of 5900 M⁻¹ s⁻¹.

(Values after publication PMC3496724.)
